From patent publication US20080003178A1 (BIOINCEPT, published 2008)
Primed or numbered codes have the meaning given here. No end group written: not given here. FITC′ = fluorescein label, attached via β-alanine spacer; βAla = NCCC(=O)O

Biological target: T1, CD58 (human, UniProt P19256 29-250)
T1 construct: whole, on cells; also called platelet marker CD58
T1 sequence: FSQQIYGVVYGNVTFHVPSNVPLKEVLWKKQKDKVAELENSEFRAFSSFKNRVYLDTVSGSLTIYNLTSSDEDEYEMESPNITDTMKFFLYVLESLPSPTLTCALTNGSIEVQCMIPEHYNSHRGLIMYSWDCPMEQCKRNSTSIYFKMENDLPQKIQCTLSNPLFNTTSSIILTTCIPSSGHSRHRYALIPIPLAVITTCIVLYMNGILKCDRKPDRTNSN
Assay: flow cytometry, FITC sPIF-1(15) on human blood cells; no binding to platelets

B1: FITC labeled sPIF-1(15) (peptide)
peptide: {FITC′-βAla}-MVRIKPGSANKPSDD
notes: also called FITC sPIF-1(15); FITC sPIF-1
B1: no binding.
